# Results reported in patent US20240352438A1, “MEANS AND METHODS FOR DETOXIFYING OCHRATOXIN A” (DSM Austria GmbH, priority 2021, published 2024).
# Residue numbers refer to the chain shown, from its start.
# B1: 316 (protein)
# chain: MTTRTRILTAFLSLLAANACAADAAPAAPETVVLRCARMFDGASGKLVDNPQLTIVGNKIVRIAQGDKAEVPAGAEVVDLGDATCLPGFIDAHVHLVVQDSDQYRPRAYKDWQRFPAEHALRGAYWARIELEAGFTSVRDVAERDWVALGLRNAIDAGKVPGPRMLVSNFPVGSTSGHCDMDSVPPNRLPLVGPLQGTCNGPEECRAAVRYQIKYGANVIKFCPSSGAITFSNPADAPQLSPDEMNAVIGESEAWGRYVAAHAQGDKAAKMAVAAGVRSIEHGTFIQDDTLRAMKAKNVCLVPTISGVCEAEAQIGCYPPVMAEKGRAGMASMRQTFREAVQIGVPIALGTDSALPANGSQAREFRYMVENGLTPAQALLAGTANAARCLGTFDRVGTLEAGKLADVVAVPGNPIADITVTERPLFVMKDGVVVRRDAVR
# modifications: exemplary polypeptide
# B2: 304 (protein)
# chain: MTTRTRILTAFLSLLAANACAADAAPAAPHTVVLRAARMFDGASGKLVDHPQLTIVGNKIVRIAQGDKAEVPAGAEVVDLGDATLLPGFIDAHVHLSGQSSDNWYGDFFDNMMRFPAEQALYGAYYARITLEAGFTSVRDVGSTDWVALGLRNAIDAGKVPGPRMLVSNYAVGSTGGHADQDPVPPHKLPLLGPLQGVCNGPEECRAAVRYQIKYGANVIKFMPSGGVLSLSDPVDAPELSQDEMNAVIGESHAWGRKVAAHAHGDKAAKMAVAAGVDSIEHGSFIEDDTLRAMKAKNVYLVPTISAIAHVEEKIGTFPPVIAEKGRAAAAHLRQTFRHAVQIGVPIALGTDAGVGAHGSNAREFRYMVENGLTPAQALLAGTANAARLLGTFDRVGTLEAGKLADVVAVPGNPIADITVTERPLFVMKDGVVVRRDAVR
# modifications: exemplary polypeptide
# B3: 91 (protein)
# chain: B2 chain with V184I, L192A, F318L
# modifications: exemplary polypeptide
# B4: 89 (protein)
# chain: B2 chain with V184I, L192A, V311I
# modifications: exemplary polypeptide
# B5: 315 (protein)
# chain: B2 chain with V184I, L192A, I308V, L333M
# modifications: exemplary polypeptide
# B6: 312 (protein)
# chain: B2 chain with V184I, L192A, I308V, A330M
# modifications: exemplary polypeptide
# B7: 307 (protein)
# chain: B2 chain with V184I, L192A, I308A, A330M
# modifications: exemplary polypeptide
# B8: 313 (protein)
# chain: B2 chain with V184I, L192A, I308V, A330V
# modifications: exemplary polypeptide
# B9: 305 (protein)
# chain: B2 chain with L192M
# modifications: exemplary polypeptide
# B10: 308 (protein)
# chain: B2 chain with V184I, L192A, I308A, A330V
# modifications: exemplary polypeptide
# B11: 306 (protein)
# chain: B2 chain with V184I, L192A, I308A, A330L
# modifications: exemplary polypeptide
# B12: 310 (protein)
# chain: B2 chain with V184I, L192A, I308A, L333M
# modifications: exemplary polypeptide
# B13: 84 (protein)
# chain: B2 chain with V184I, L192A, H264N
# modifications: exemplary polypeptide
# B14: 87 (protein)
# chain: B2 chain with V184I, L192A, I308A
# modifications: exemplary polypeptide
# B15: 88 (protein)
# chain: B2 chain with V184I, L192A, V311L
# modifications: exemplary polypeptide
# B16: 85 (protein)
# chain: B2 chain with V184I, L192A, H264L
# modifications: exemplary polypeptide
# B17: 311 (protein)
# chain: B2 chain with V184I, L192A, I308V, A330L
# modifications: exemplary polypeptide
# B18: 83 (protein)
# chain: B2 chain with V184I, L192A, L229I
# modifications: exemplary polypeptide
# B19: 309 (protein)
# chain: B2 chain with V184I, L192A, I308A, L333I
# modifications: exemplary polypeptide
# Assay: OTA detoxification activity assay (specific activity, fluorescence reduction ex/em 390/450 nm)
# Assay type: biochemical
# Conditions: pH 6.0; SEQ ID NO: 1 = 100%
# In short: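 Recombinant enzyme preparation with 200 ng/mL OTA in 100 mM sodium phosphate, at pH 6.0 and pH 7.5, 37° C. Degradation followed as the fall in fluorescence at ex/em 390/450 nm. Specific activity taken from the initial linear slope; one unit degrades 1 μmol OTA per min at a starting OTA of […].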
row,Molecule,"Specific OTA detoxification activities in % compared to the enzyme of SEQ ID NO: 1, pH 6.0"
1,B1,62%
2,B2,25%
3,B3,49%
4,B4,43%
5,B5,38%
6,B6,81%
7,B7,138%
8,B8,84%
9,B9,36%
10,B10,171%
11,B11,114%
12,B12,78%
13,B13,3%
14,B14,65%
15,B15,66%
16,B16,5%
17,B17,89%
18,B18,63%
19,B19,106%

# Same assay, conditions: pH 7.5; SEQ ID NO: 1 = 100%
row,Molecule,"Specific OTA detoxification activities in % compared to the enzyme of SEQ ID NO: 1, pH 7.5"
1,B1,61%
2,B2,24%
3,B3,73%
4,B4,107%
5,B5,56%
6,B6,64%
7,B7,84%
8,B8,54%
9,B9,46%
10,B10,117%
11,B11,74%
12,B12,91%
13,B13,5%
14,B14,166%
15,B15,91%
16,B16,3%
17,B17,48%
18,B18,90%
19,B19,48%

# Assay: Enzymatic activity comparison: activity remaining after 65° C. for 10 min at pH 6.0, relative to SEQ ID NO: 1
# Assay type: physicochemical
# Conditions: not given
# Experimental: To compare the temperature behavior and thermostability of selected enzymes to one another, enzyme was incubated at 65° C. for 10 min at pH 6.0. The enzymatic activity remaining after incubation was compared to the remaining activity of the enzyme of SEQ ID NO: 1 after incubation, the latter being set to 100%, see Table 16.
row,Molecule,"Enzymatic activity remaining after incubation, compared to SEQ ID NO: 1 (set to 100%)"
1,B1,25%
2,B2,63%
3,B3,16%
4,B4,71%
5,B5,29%
6,B6,17%
7,B7,35%
8,B8,20%
9,B9,35%
10,B10,39%
11,B11,36%
12,B12,39%
13,B13,58%
14,B14,53%
15,B15,33%
16,B16,95%
17,B17,30%
18,B18,19%
19,B19,28%
